This test has as its target CslA-His12 (cellulose synthase-like protein CslA from Streptomyces lividans, full length, C-terminal 12-histidine tag) (Streptomyces lividans).

In turn, “Flag-tagged GlxA^12-261 (truncated GlxA lacking Region-2 and Domain 3) (domain or fragment)” registered an activity (UDP release) of the CslA–GlxA^12-261 complex against the wild-type CslA–GlxA complex of 40%.
